Measurements: paper PMC3713010, “Sox2 Transcriptionally Regulates Pqbp1, an Intellectual Disability-Microcephaly Causative Gene, in Neural Stem Progenitor Cells”

T1: Brn2 DNA-binding domain (BD-Brn2) (Mus musculus (B6), UniProt P31360 336-435)
T1 sequence: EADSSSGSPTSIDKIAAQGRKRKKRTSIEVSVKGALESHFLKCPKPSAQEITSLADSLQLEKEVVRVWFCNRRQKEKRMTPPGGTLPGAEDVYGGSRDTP

T2: Oct6 DNA-binding domain (BD-Oct6) (Mus musculus (B6), UniProt P21952 317-416)
T2 sequence: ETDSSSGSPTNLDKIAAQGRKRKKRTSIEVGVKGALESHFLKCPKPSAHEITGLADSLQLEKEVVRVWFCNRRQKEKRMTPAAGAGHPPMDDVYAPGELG

B1: 23 (dsDNA)
DNA 1: GGGGGAATCTCTATCTTACTTCTTGTAAGTGTGGACAAATGCAGGTTCCCCC
DNA 2: GGGGGAACCTGCATTTGTCCACACTTACAAGAAGTAAGATAGAGATTCCCCC
B2: 26 (dsDNA)
DNA 1: GGGGGGTGGAGGCTTTGTGTAATCAGTCTGTGTACCCCC
DNA 2: GGGGGTACACAGACTGATTACACAAAGCCTCCACCCCCC
B3: 24 (dsDNA)
DNA 1: GGGGGCTTGTATCTTTGTATGTTCACAGAAAGCAAAGTAGCGTGGCCCCC
DNA 2: GGGGGCCACGCTACTTTGCTTTCTGTGAACATACAAAGATACAAGCCCCC
B4: 28 (dsDNA)
DNA 1: GGGGGAAAAAAGATTCTAATCTTTTTTGTGGTGGTGGCCCCC
DNA 2: GGGGGCCACCACCACAAAAAAGATTAGAATCTTTTTTCCCCC
B5: 19 (dsDNA)
DNA 1: GGGGGGAAGGAAAATTGTTCCCTGACATTTTTGAACTGGGCCCCC
DNA 2: GGGGGCCCAGTTCAAAAATGTCAGGGAACAATTTTCCTTCCCCCC
B6: 18 (dsDNA)
DNA 1: GGGGGCTTAGAATTAGTAATTTCTTGATATTGTCTGTTAAGCCCCC
DNA 2: GGGGGCTTAACAGACAATATCAAGAAATTACTAATTCTAAGCCCCC
B7: 22 (dsDNA)
DNA 1: GGGGGTACATACAGCAAAATAATCTTTGTAGGGGGGACCCCC
DNA 2: GGGGGTCCCCCCTACAAAGATTATTTTGCTGTATGTACCCCC
B8: 29 (dsDNA)
DNA 1: GGGGGAAAAACTTTTTGTTATTTCATTTTTATTAGTGGCCCCC
DNA 2: GGGGGCCACTAATAAAAATGAAATAACAAAAAGTTTTTCCCCC
B9: 25 (dsDNA)
DNA 1: GGGGGCAGATAACTTTGTCCTTTTTGATTTTGAGTGAAGACCCCC
DNA 2: GGGGGTCTTCACTCAAAATCAAAAAGGACAAAGTTATCTGCCCCC
B10: 21 (dsDNA)
DNA 1: GGGGGCAGAATCATTTGTGTTTTCCCATTTTTGCCAGGGGCCCCC
DNA 2: GGGGGCCCCTGGCAAAAATGGGAAAACACAAATGATTCTGCCCCC
B11: 27 (dsDNA)
DNA 1: GGGGGCACACCTGTTTGTTTTCCACTTCACAGAGGAGGCATAGGAAACTCCCCC
DNA 2: GGGGGAGTTTCCTATGCCTCCTCTGTGAAGTGGAAAACAAACAGGTGTGCCCCC
B12: 20 (dsDNA)
DNA 1: GGGGGCTCAGAGCTAGAAATATTTGTGGAATGGGCCCCC
DNA 2: GGGGGCCCATTCCACAAATATTTCTAGCTCTGAGCCCCC

What was measured:
Assay in all cases: EMSA; 10% glycerol, 20 mM HEPES pH 7.8, 45 mM KCl, 10 mM NaCl, 1 mM EDTA, 1 mM DTT, 0.2 ug/uL BSA, 0.1% NP-40, 50 ng poly-dIdC; 20 ng each GST protein; room temperature 30 min (heterodimers 4 C); 6% PAGE 0.25x TBE
Conditions in all cases: protein: recombinant; tags: GST (N-terminal, pGEX-6P-1); label: 32P-dCTP fill-in of the 5' (dG)5 overhangs of both strands (Methods; control probes are given with GGG)
[1] = target: Pax6 DNA-binding domain (BD-Pax6) (Mus musculus (B6), UniProt P63015 190-289)
In short: (§1)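 Transcription factor DNA-binding domains carrying a GST tag were expressed in E. coli BL21, purified on glutathione-sepharose and tested against annealed candidate cis-element oligonucleotides labelled with 32P-dCTP. Each reaction held 20 ng protein, 40,000–50,000 cpm probe and 50 ng poly-dIdC in HEPES/KCl glycerol buffer with BSA and detergent, incubated 30 min at room temperature, then run on 6% polyacrylamide in 0.25×TBE at 4°C. DNA binding was scored as the radioactivity of the band in the expected shift region, read on a phosphor imager.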

[2] = target: T1, Brn2 DNA-binding domain (BD-Brn2)
In short: as §1

[3] = target: T2, Oct6 DNA-binding domain (BD-Oct6)
In short: as §1

Sequence of Pax6 DNA-binding domain (BD-Pax6) (P63015 190-289): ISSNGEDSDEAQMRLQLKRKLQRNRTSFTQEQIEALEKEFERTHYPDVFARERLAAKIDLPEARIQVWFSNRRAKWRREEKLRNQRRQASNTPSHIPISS

Row | Binder | binding result [1] | binding result [2] | binding result [3]
1 | B1 | no binding | no binding | no binding
2 | B2 | no binding | binds | binds
3 | B3 | no binding | no binding | no binding
4 | B4 | no binding | no binding | no binding
5 | B5 | no binding | no binding | no binding
6 | B6 | binds | no binding | binds
7 | B7 | no binding | no binding | no binding
8 | B8 | no binding | no binding | binds
9 | B9 | no binding | no binding | no binding
10 | B10 | no binding | no binding | no binding
11 | B11 | no binding | no binding | no binding
12 | B12 | no binding | no binding | no binding
